Literature values, collected in publication PMC9280966 (ACS Omega, 2022).

Molecular target: RHEB (Homo sapiens, UniProt Q15382)
Conditions: read-out: KD with RHEB (BLI); BLI analysis, earlier study; ref [12]

Sequence of RHEB (Q15382 whole entry): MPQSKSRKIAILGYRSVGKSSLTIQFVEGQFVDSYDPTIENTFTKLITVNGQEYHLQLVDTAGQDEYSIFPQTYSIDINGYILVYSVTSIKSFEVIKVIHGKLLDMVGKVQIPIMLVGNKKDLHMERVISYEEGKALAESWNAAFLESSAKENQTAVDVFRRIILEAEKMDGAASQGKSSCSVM

Kd: ~6.5 µM
Substance: mTOR^ΔN: N-heat domain of mTOR (aa 60–167), 6xHis tagged, ∼13 kDa
